From PMC5740060

How the values were obtained:
[1] = molecular target: PfTrx-L2(8x)-OVX313 (Pyrococcus furiosus); assay: SEC; Superdex 200 HR10/30, 25 mM Tris-HCl (pH 7.5), 150 mM NaCl, 0.7 ml/min; heparin-purified antigen; calibrated with molecular mass standards
[2] = molecular target: PfTrx-L2(8x)-OVX313 (Pyrococcus furiosus); assay: non-reducing SDS-PAGE; heparin-purified antigen electrophoresed without β-mercaptoethanol (disulfide-linked oligomer kept); reduced sample beside it runs as the monomer
[3] = molecular target: L2-OVX313 (human papillomavirus type 16) (UniProt P03107); assay: SEC; Superdex 200 HR10/30, 25 mM Tris-HCl (pH 7.5), 150 mM NaCl, 0.7 ml/min; heparin-purified antigen; calibrated with molecular mass standards
[4] = molecular target: L2-OVX313 (human papillomavirus type 16) (UniProt P03107); assay: non-reducing SDS-PAGE; heparin-purified antigen electrophoresed without β-mercaptoethanol (disulfide-linked oligomer kept); reduced sample beside it runs as the monomer
[5] = molecular target: PfTrx-L2-OVX313 (Pyrococcus furiosus | human papillomavirus type 16) (UniProt P03107); assay: SEC; Superdex 200 HR10/30, 25 mM Tris-HCl (pH 7.5), 150 mM NaCl, 0.7 ml/min; heparin-purified antigen; calibrated with molecular mass standards
[6] = molecular target: PfTrx-L2-OVX313 (Pyrococcus furiosus | human papillomavirus type 16) (UniProt P03107); assay: non-reducing SDS-PAGE; heparin-purified antigen electrophoresed without β-mercaptoethanol (disulfide-linked oligomer kept); reduced sample beside it runs as the monomer

PfTrx-L2(8x)-OVX313
stoichiometry N [1]: 7
stoichiometry N [2]: 7

L2-OVX313 (from UniProt P03107 20-38; P03107 20-38; P03107 20-38)
stoichiometry N [3]: 7
stoichiometry N [4]: 7

PfTrx-L2-OVX313 (from UniProt P03107 20-38; P03107 20-38; P03107 20-38)
stoichiometry N [5]: 7
stoichiometry N [6]: 7
